Like-named read-outs stand apart in the source and are kept apart here. Square brackets hold non-standard residues; d marks the D form. Ends that are not written are not given here. LTF = trifluoroleucine

Here are results for three molecules from patent US20240115742A1, “FLUORINATED FIBERS FOR MULTIMODAL 1H AND 19F MRI, ULTRASOUND, FLUORESCENCE DETECTION AND CONFORMATIONAL AND TEMPERATURE DETECTION BY 19F MRS” (New York University, priority 2022, published 2024).

One data set is described as follows: TEM of protein fibers. The format is physicochemical. The following applies: fibers, 50 mM NaH2PO4 pH 4.0. The protocol:
Transmission Electron Microscopy. Transmission electron microscopy (TEM) images were taken with a FEI Talos L120C transmission electron microscope. Protein fiber samples were diluted to 50 μM and 3 μL was spotted on Formvar/carbon-coated copper grids followed by 5 μL wash with water, and 3 μL staining with 1% v/v uranyl acetate solution each with incubation times of 1 min at RT. Fibrils were sized in ImageJ software (Version 1.52q).
Transmission Electron Microscopy. Transmission electron microscopy (TEM) images were taken with a FEI Talos L120C transmission electron microscope. Samples were diluted to 50 μM and 3 μL was spotted on Formvar/carbon-coated copper grids followed by a 5 μL wash with water, and 3 μL staining with 1% v/v uranyl acetate solution each with incubation times of 1 min. Between steps, filter paper was used to wick the grids. Following imaging, fibrils were sized in ImageJ software (Version 1.52q).

Data set [1] in a line: Confocal microscopy of CCM-bound fibers. The format is physicochemical. Particulars: 50 μM protein saturated with CCM, pH 4.0. The protocol: Confocal Microscopy. Protein bound to CCM was studied by measuring 50 μM protein samples saturated with CCM as determined by fluorescent spectroscopic drug binding with a final 1% v/v DMSO (or 2×Kd). 10 μL of protein was added to a micro slide and a 22×22 mm #1 microscope cover glass. Slides were inverted and imaged using a Leica TCS SP8 X Laser Confocal Microscope using a dry 10× objective at RT. CCM was excited using a 460 nm line of the laser, and images were taken using a 470 to 550 nm detection window.
Confocal Microscopy. Q2LTF was diluted to 50 μM and saturated with 40 μM of curcumin (solubilized in DMSO) as determined by the binding affinity in drug-binding experiments. […] 5 μL of sample was deposited onto a microslide and covered with a 22×22 mm #1 microscope cover glass. Images were taken with a Leica TCS SP8 X laser confocal microscope using a dry 10× objective at RT. Samples were excited at 460 nm and images were taken with a 470-550 nm detection window.

Data set [2] is described as follows: ATR-FTIR peak deconvolution of secondary structure. The format is physicochemical. As to the method: Attenuated Total Reflectance-Fourier Transform Infrared Spectroscopy. Secondary structure of protein fiber variants was confirmed using attenuated total reflectance-Fourier transform infrared (ATR-FTIR) spectroscopy using the Nicolet 6700 Fourier Transform Infrared Spectrometer equipped with a diamond ATR accessory and a mercury cadmium telluride (MCT)-A detector. Spectra were collected for 5 μL of 500 μM protein from 4000-400 cm^−1 with 0.5 cm^−1 increments at room temperature (RT). For CCM bound protein, protein was bound at a final concentration of 500 μM and saturated with CCM as determined by fluorescent spectroscopic drug binding with a final 1% v/v DMSO. Sample spectra were normalized using buffer background and analyzed from 1700-1600 cm^−1 corresponding to the amide I region. Peaks were deconvoluted using Gaussian functions in PeakFit software until the goodness of fit reached r^2≥0.99. Peaks were associated with secondary structure were determined by methods known in the art.
(§1) Attenuated Total Reflectance-Fourier Transform Infrared Spectroscopy. Secondary structure of Q2 protein was confirmed using attenuated total reflectance-Fourier transform infrared (ATR-FTIR) spectroscopy using the Nicolet 6700 Fourier Transform Infrared Spectrometer equipped with a diamond ATR accessory and a mercury cadmium telluride (MCT)-A detector. Spectra were collected for 5 μL of 2 mM protein from 4000-400 cm^−1 with 0.5 cm^−1 increments. Sample spectra were normalized using buffer background and analyzed from 1700-1600 cm^−1 corresponding to the amide I region. Peaks were deconvoluted using Gaussian functions in PeakFit software until the goodness of fit reached r^2>0.99.
as §1, with “of Q2LTF and QLTF” for “of Q2”, “using a” for “using the”, “of 1” for “of 2”, “with 4.0” for “with 0.5”, “reached r^2≥0.99.” for “reached r^2>0.99.”
Attenuated Total Reflectance-Fourier Transform Infrared Spectroscopy. Secondary structure before (solution) and after gelation (gel) was also assessed by peak deconvolution of attenuated total reflectance-Fourier transform infrared (ATR-FTIR) spectra. ATR-FTIR measurements were performed using a Nicolet 6700 Fourier Transform Infrared Spectrometer equipped with a mercury cadmium telluride (MCT)-A detector. Spectra were collected for 5 μL samples of protein at 2 mM from 4000-400 cm^−1 with a 4.0 cm^−1 resolution, normalized, and buffer-subtracted prior to analysis from 1700-1600 cm^−1, corresponding to the amide I region. ATR-FTIR measurements were performed immediately after concentration to 2 mM for solution measurements and after. Peaks were deconvoluted using Gaussian functions in PeakFit software until the goodness of fit reached r^2≥0.99.

Data set [3] in a line: CD temperature scans (melting temperature). The format is physicochemical. The protocol:
Circular Dichroism Spectroscopy. Secondary structure was first assessed using the Jasco J-815 CD spectrometer with a PTC-423S single position Peltier temperature control system. Wavelength scans were performed from 190 to 250 nm using 15 μM samples at 1 nm step sizes at 25° C. Temperature scans were performed at α-helical minimum 222 nm from 20 to 85° C. The mean residue ellipticity (MRE) was calculated as described previously. MRE at 222 nm and 208 nm and their ratios were used to assess relative helicity.
Circular Dichroism Spectroscopy. The secondary structure of Q2LTF and QLTF was assessed using a Jasco J-815 circular dischroism (CD) spectrometer with a PTC-423S single position Peltier temperature control system. Wavelength scans were performed from 195 to 250 nm at 1 nm step sizes by diluting the protein into water (at approximately 10 μM) in order to minimize the effects of sodium chloride. […] The mean residue ellipticity (MRE) was calculated as described.

For data set [4] the following is noted: previous studies, cited from earlier work.

In the case of “C2: C variant with redistributed electrostatic patches, SEQ ID NO: 22 (MRGSHHHHHHGSIEGRMQLAKHMLKELQKTNALQSVRTLLQQQVEEITQLKETVENSDSS) [Protein C2]”, the “average protein fiber diameter (TEM)” value in “TEM of protein fibers” stood at 73±18 nm. Moreover, the “fiber diameter after CCM binding (confocal)” value in data set [1] stood at 6.89±2.54 μm. The aggregated strands in data set [2] (native) came out at 5.3%; in data set [2] (w/CCM), 9.0%. Moreover, the “antiparallel β-sheet/aggregated strands” value in data set [2] (native) was 15.0%; in data set [2] (w/CCM), 4.8%. Also, the melting temperature was determined as 69.6±7.8 °C in data set [3] (CCM-bound, pH 4.0) and 49.4±1.1 °C in data set [3] (native, 50 mM NaH2PO4 pH 4.0).

As to “QLTF: Q with leucines replaced by trifluoroleucine, SEQ ID NO: 19 (MRGSHHHHHHGSIEGRVKEITF[LTF]KNTAPQM[LTF]RE[LTF]QETNAA[LTF]QDVRE[LTF][LTF]RQQSK[LTF]; ends and bridges not checked) [reference compound]”, the “aggregated strands” value in data set [2] (fluorinated constructs, Tris buffer) was 17.4 % composition. For the same molecule, in data set [4], the melting temperature was 52 °C.

B1: C: cartilage oligomeric matrix protein coiled-coil with His tag, SEQ ID NO: 21 (protein)
chain: MRGSHHHHHHGSIEGRAPQMLRELQETNAALQDVRELLRQQVKEITFLKNTVMESDASGKL
modifications: His tag
Regarding B1, the “average protein fiber diameter (TEM)” value in “TEM of protein fibers” is on record as 47±22 nm. Besides, the “fiber diameter after CCM binding (confocal)” value in data set [1] was determined as 4.91±1.49 μm. The aggregated strands is recorded as 10.0% in data set [2] (native) and 20.8% in data set [2] (w/CCM). Also, the “antiparallel β-sheet/aggregated strands” value was determined as 11.5% in data set [2] (native) and 0.0% in data set [2] (w/CCM). Also, the melting temperature is 51.8±4.3 °C in data set [3] (CCM-bound, pH 4.0); 56.0±2.6 °C in data set [3] (native, 50 mM NaH2PO4 pH 4.0); 41-42 °C in data set [4] (Na2HPO4 pH 8.0).
